# Measurements published in patent publication US20170253656A1 (SUTRO BIOPHARMA, published 2017).
# Positions count from the first letter of the chain named.
# T1: hu-CD74 antigen (R&D SYSTEMS catalog #3590-CD-050) (human, UniProt P04233-2 73-232, limits assumed)
# T1 construct: Bought antigen; also called rhCD74; human CD74
# T1 sequence (looked up): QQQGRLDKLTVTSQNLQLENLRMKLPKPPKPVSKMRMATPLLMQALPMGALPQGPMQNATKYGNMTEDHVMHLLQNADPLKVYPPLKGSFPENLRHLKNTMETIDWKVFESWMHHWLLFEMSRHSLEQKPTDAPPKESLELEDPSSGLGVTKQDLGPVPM
# B1: HC 1251_B08 (wt)/LC 1337_A07 (wt) (antibody, human IgG1, kappa, V domains shown)
# VH: QVQLVESGGGVVQPGRSLRLSCAASGFNFSDYGMHWVRQAPDKGLEWVAVIWYDGSISYYADSVKGRFTISRDNSKNTLYLQMNSLRAEDTAVYYCARGGTVEHGAVYGTDVWGQGATVTVSS
# VL: DIQMTQSPSSLSASVGDRVTITCRASQGISSWVAWYQQKPEKAPKSLIYGASRLQSGVPSRFSGSGSGTDFTLTISSLQPEDFATYYCQQYHTYPLTFGGGTKVEIKR
# notes: IgG format
# B2: HC 1251_B08 (g)/LC 1275_C10 (wt) (antibody, human IgG1, kappa, V domains shown)
# VH: B1 VH with D42G, A117T
# VL: B1 VL with I29V, V33L, G50S, S52R, R53Y, H92N, T93L
# notes: IgG format
# B3: HC 1251_B08 (g)/LC 1337_A09 (g) (antibody, human IgG1, kappa, V domains shown)
# VH: B1 VH with D42G, A117T
# VL: B1 VL with L11V, S30G, V33L, E41G, S46L, G50A, S52D
# notes: IgG format
# B4: HC 1251_B08 (g)/LC 1337_A07 (g) (antibody, human IgG1, kappa, V domains shown)
# VH: B1 VH with D42G, A117T
# VL: B1 VL with L11V, E41G, S46L
# notes: IgG format
# B5: HC 1251_B08 (g)/LC 1275_C10 (g) (antibody, human IgG1, kappa, V domains shown)
# VH: B1 VH with D42G, A117T
# VL: B1 VL with L11V, I29V, V33L, E41G, S46L, G50S, S52R, R53Y, H92N, T93L
# notes: IgG format
# B6: HC 1251_B08 (g)/LC 1337_A09 (wt) (antibody, human IgG1, kappa, V domains shown)
# VH: B1 VH with D42G, A117T
# VL: B1 VL with S30G, V33L, G50A, S52D
# notes: IgG format
# B7: HC 1251_B08 (g)/LC 1337_A10 (g) (antibody, human IgG1, kappa, V domains shown)
# VH: B1 VH with D42G, A117T
# VL: B1 VL with L11V, E41G, S46L, A51S, H92N
# notes: IgG format
# B8: HC 1251_B08 (wt)/LC 1337_A09 (g) (antibody, human IgG1, kappa, V domains shown)
# VH: B1 VH
# VL: B1 VL with L11V, S30G, V33L, E41G, S46L, G50A, S52D
# notes: IgG format
# B9: HC 1251_B08 (wt)/LC 1337_A07 (g) (antibody, human IgG1, kappa, V domains shown)
# VH: B1 VH
# VL: B1 VL with L11V, E41G, S46L
# notes: IgG format
# B10: HC 1251_B08 (wt)/LC 1337_A10 (wt) (antibody, human IgG1, kappa, V domains shown)
# VH: B1 VH
# VL: B1 VL with A51S, H92N
# notes: IgG format
# B11: HC 1251_B08 (wt)/LC 1337_A09 (wt) (antibody, human IgG1, kappa, V domains shown)
# VH: B1 VH
# VL: B1 VL with S30G, V33L, G50A, S52D
# notes: IgG format
# B12: HC 1251_B08 (wt)/LC 1275_C10 (g) (antibody, human IgG1, kappa, V domains shown)
# VH: B1 VH
# VL: B1 VL with L11V, I29V, V33L, E41G, S46L, G50S, S52R, R53Y, H92N, T93L
# notes: IgG format
# B13: HC 1251_B08 (wt)/LC 1275_C10 (wt) (antibody, human IgG1, kappa, V domains shown)
# VH: B1 VH
# VL: B1 VL with I29V, V33L, G50S, S52R, R53Y, H92N, T93L
# notes: IgG format
# B14: HC 1251_B08 (wt)/LC 1337_A10 (g) (antibody, human IgG1, kappa, V domains shown)
# VH: B1 VH
# VL: B1 VL with L11V, E41G, S46L, A51S, H92N
# notes: IgG format
# Target: T1, hu-CD74 antigen (R&D SYSTEMS catalog …)
# Test: SPR (Biacore T200), IgG captured on anti-human Fc, rhCD74 analyte
# Protocol: Kinetic binding experiments were performed at 25° C. using 1×HBS-EP+buffer. Kinetic data was collected by injecting test and control antibodies at concentrations of 10, 5 and 2.5 μg/mL for 12 s at a flow rate of 10 μl/min on flow cells 2, 3 and 4 respectively, followed by a buffer wash for 30 s at the same flow rate. Kinetic characterization of antibody samples was carried out with 8 concentrations of a 1:2 dilution series of rhCD74 antigen (R&D Systems) and 2 injections of 0 nM antigen (buffer only). […] Between each ligand capture and analyte binding cycle, regeneration was carried out using 2 injections of 3M MgCl₂ for 30 seconds at 30 μL/min, followed by a 30 second buffer wash step.
Kd,koff,kon,Binder
0.211 nM,8.01e-05 s⁻¹,379000 M⁻¹ s⁻¹,B1
0.862 nM,0.000155 s⁻¹,180000 M⁻¹ s⁻¹,B2
0.252 nM,7.77e-05 s⁻¹,309000 M⁻¹ s⁻¹,B3
0.239 nM,7.76e-05 s⁻¹,325000 M⁻¹ s⁻¹,B4
0.332 nM,0.000102 s⁻¹,306000 M⁻¹ s⁻¹,B5
0.64 nM,0.000106 s⁻¹,166000 M⁻¹ s⁻¹,B6
0.254 nM,9.97e-05 s⁻¹,392000 M⁻¹ s⁻¹,B7
0.347 nM,0.000115 s⁻¹,332000 M⁻¹ s⁻¹,B8
0.611 nM,0.000142 s⁻¹,232000 M⁻¹ s⁻¹,B9
0.235 nM,0.000115 s⁻¹,491000 M⁻¹ s⁻¹,B10
0.108 nM,0.000116 s⁻¹,1.07e+06 M⁻¹ s⁻¹,B11
0.437 nM,0.000124 s⁻¹,284000 M⁻¹ s⁻¹,B12
0.191 nM,0.000119 s⁻¹,623000 M⁻¹ s⁻¹,B13
0.957 nM,0.000183 s⁻¹,191000 M⁻¹ s⁻¹,B14
